Variants at the floor of the assay were thinned out.
Legend:
[1] = system: biotinyl-Phe-oxazolone; experiment: self-aminoacylation, catalytic enhancement (BFO) (fold over background); higher = more active; k-Seq, kA / k0A0; sequences stand for … in GGGAAUGGAUCCACAUCUACGAAUUC…UUCACUGCAGACUUGACGAAGCUG
Summary of the method: (§1)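 Mutagenized RNA pools with a 21-nt variable region (0.43 μM) were reacted with each biotinyl-aminoacyl-oxazolone at 2–1250 μM for 90 minutes at room temperature, in 50 μL HEPES/NaCl/KCl/MgCl2/CaCl2 buffer containing 5% acetonitrile at pH 6.9–7.0. RNA captured on streptavidin was quantified by triplicate qPCR and by Illumina sequencing. The fraction reacted for each sequence was fit to a pseudo-first-order model with bootstrapping, and catalytic enhancement is the median kA divided by the uncatalyzed rate, taken as the low-activity peak of a bimodal Gaussian fit.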

[2] = system: biotinyl-Ile-oxazolone; experiment: self-aminoacylation, catalytic enhancement (BIO) (fold over background); higher = more active; k-Seq, kA / k0A0; sequences stand for … in GGGAAUGGAUCCACAUCUACGAAUUC…UUCACUGCAGACUUGACGAAGCUG
Summary of the method: as §1

[3] = system: biotinyl-Met-oxazolone; experiment: self-aminoacylation, catalytic enhancement (BMO) (fold over background); higher = more active; k-Seq, kA / k0A0; sequences stand for … in GGGAAUGGAUCCACAUCUACGAAUUC…UUCACUGCAGACUUGACGAAGCUG
Summary of the method: as §1

[4] = system: biotinyl-Val-oxazolone; experiment: self-aminoacylation, catalytic enhancement (BVO) (fold over background); higher = more active; k-Seq, kA / k0A0; sequences stand for … in GGGAAUGGAUCCACAUCUACGAAUUC…UUCACUGCAGACUUGACGAAGCUG
Summary of the method: as §1

[5] = system: biotinyl-Leu-oxazolone; experiment: self-aminoacylation, catalytic enhancement (BLO) (fold over background); higher = more active; k-Seq, kA / k0A0; sequences stand for … in GGGAAUGGAUCCACAUCUACGAAUUC…UUCACUGCAGACUUGACGAAGCUG
Summary of the method: as §1

[6] = system: biotinyl-Trp-oxazolone; experiment: self-aminoacylation, catalytic enhancement (BWO) (fold over background); higher = more active; k-Seq, kA / k0A0; sequences stand for … in GGGAAUGGAUCCACAUCUACGAAUUC…UUCACUGCAGACUUGACGAAGCUG
Summary of the method: as §1

| Sequence | self-aminoacylation [1] | self-aminoacylation [2] | self-aminoacylation [3] | self-aminoacylation [4] | self-aminoacylation [5] | self-aminoacylation [6] |
| --- | --- | --- | --- | --- | --- | --- |
| CCACACUUCAAUCAAUCGGUA [Fam1B.1 aminoacylation ribozyme variant] | 0.825 | 0.79 | 0.749 | 0.849 | 0.609 | 0.739 |
| CCACACUUCAAUCAAUCGGUU [Fam1B.1 aminoacylation ribozyme variant] | 7.61 | 1.47 | 1.16 | 1.21 | 1.34 | 5.87 |
| CCACACUUCACGCAAACGGUC [Fam1B.1 aminoacylation ribozyme variant] | 0.827 | 0.736 | 0.793 | 0.995 | 0.861 | 0.98 |
| CCACACUUCACGCAACCGGUC [Fam1B.1 aminoacylation ribozyme variant] | 0.978 | 1.24 | 1.21 | 1.55 | 1.55 | 0.831 |
| CCACACUUCACGCAAUCGGUU [Fam1B.1 aminoacylation ribozyme variant] | 0.906 | 1.76 | 2.01 | 1.92 | 1.95 | 1.45 |
| CCACACUUCAGGCAAUCGAUC [Fam1B.1 aminoacylation ribozyme variant] | 0.731 | 0.813 | 0.634 | 0.892 | 0.591 | 0.804 |
| CCACACUUCAUGCAAUCGCUC [Fam1B.1 aminoacylation ribozyme variant] | 0.603 | 0.99 | 1.36 | 1.06 | 1.1 | 0.588 |
| CCACACUUCAUGCAAUCGGGC [Fam1B.1 aminoacylation ribozyme variant] | 0.961 | 1.86 | 1.25 | 1.84 | 1.38 | 1.77 |
| CCACACUUCAUGCAAUCGUUC [Fam1B.1 aminoacylation ribozyme variant] | 0.835 | 0.737 | 0.566 | 0.699 | 0.513 | 0.373 |
| CCACACUUCAUGCAAUGGGUC [Fam1B.1 aminoacylation ribozyme variant] | 0.544 | 0.751 | 0.738 | 0.712 | 0.704 | 0.569 |
| CCACACUUCCAGAAAUCGGUC [Fam1B.1 aminoacylation ribozyme variant] | 1.69 | 0.933 | 0.808 | 1.06 | 1.13 | 0.976 |
| CCACACUUCCAGCAAUCGGCC [Fam1B.1 aminoacylation ribozyme variant] | 3.34 | 3.06 | 2.08 | 4.01 | 2.42 | 4.06 |
| CCACACUUCGAGCAAACGGUC [Fam1B.1 aminoacylation ribozyme variant] | 0.648 | 0.678 | 0.663 | 0.655 | 0.632 | 0.57 |
| CCACACUUCGAGCAAGCGGUC [Fam1B.1 aminoacylation ribozyme variant] | 0.487 | 0.864 | 0.927 | 1.19 | 0.874 | 0.82 |
| CCACACUUCGAGCAAUCAGUC [Fam1B.1 aminoacylation ribozyme variant] | 0.892 | 0.666 | 0.488 | 0.625 | 0.52 | 0.695 |
| CCACACUUCGAGCAAUCGGCC [Fam1B.1 aminoacylation ribozyme variant] | 7.13 | 1.64 | 1.61 | 2.77 | 1.94 | 2.11 |
| CCACACUUCGAGCAUUCGGUC [Fam1B.1 aminoacylation ribozyme variant] | 1.18 | 1.97 | 1.67 | 2.2 | 1.72 | 1.54 |
| CCACACUUCGAGCGAUCGGUC [Fam1B.1 aminoacylation ribozyme variant] | 2.95 | 1.43 | 1.64 | 1.69 | 1.86 | 1.38 |
| CCACACUUCUAGCAACCGGUC [Fam1B.1 aminoacylation ribozyme variant] | 0.818 | 0.817 | 0.681 | 0.946 | 0.868 | 0.402 |
| CCACACUUCUAGCAAUCAGUC [Fam1B.1 aminoacylation ribozyme variant] | 1.14 | 0.797 | 0.648 | 0.721 | 0.622 | 0.459 |
| CCACACUUCUAGCAAUCUGUC [Fam1B.1 aminoacylation ribozyme variant] | 0.693 | 0.424 | 0.378 | 0.502 | 0.354 | 0.292 |
| CCACACUUGACGCAAUCGGUC [Fam1B.1 aminoacylation ribozyme variant] | 1.18 | 1.4 | 1.44 | 1.43 | 1.21 | 1.54 |
| CCACACUUUAAGCAAUCAGUC [Fam1B.1 aminoacylation ribozyme variant] | 1.03 | 0.76 | 0.541 | 0.874 | 0.69 | 0.749 |
| CCACACUUUAAGCAAUCGUUC [Fam1B.1 aminoacylation ribozyme variant] | 0.911 | 0.669 | 0.566 | 0.849 | 0.543 | 0.575 |
| CCACACUUUAAGGAAUCGGUC [Fam1B.1 aminoacylation ribozyme variant] | 0.557 | 0.862 | 0.717 | 0.826 | 0.725 | 0.644 |

Reference: the supplement of paper PMC9233669
